This is an account of results in patent US20140242073A1, “CARTILAGE/BONE DESTRUCTION SUPPRESSOR” (priority 2011, published 2014).

In one series the test system is cartilage cells. The note with it: intra-articular administration, Nakazawa et al. 2002; cited from earlier work.
Series [1] relates to thioglycolate-induced peritoneal macrophages. The experiment in a line: Flow cytometry reactivity of antibody with peritoneal macrophages. The class given is binding, Lewis rats. The note with it: Lewis rat peritoneal macrophages, co-stained anti-CD11b/c. How it is done: (§1) After the end of reaction, stainability was measured using a flow cytometer. […], 3% thioglycolate was intraperitoneally administered to Lewis rats, and peritoneal macrophages were collected 4 days later. The negative control antibody or the 4A67 antibody was added to the macrophages adjusted to 1×10^5 for the same reaction as above, followed by further adding an anti-CD11b/c antibody labeled with phycoerythrin or the negative control antibody labeled with phycoerythrin for reaction. After the reaction, stainability was measured using a flow cytometer.
A general note: In flow cytometry, cells or beads pass a laser one at a time.

The subject of series [2] is rat FR-β-expressing B300-19. Briefly: Flow cytometry reactivity of antibody with FR-β-expressing B300-19 cells. It counts as binding. The note with it: 1×10^5 cells, APC-labeled anti-mouse IgM. The protocol: The resultant hybridomas were cloned by limiting dilution culture adjusted to 1 cell per well of a 96-well plate. The cloned cells were sorted by reactivity with FR-β-expressing cells. The isotype of the mouse monoclonal antibodies was determined using a mouse immunoglobulin isotyping ELISA kit (Pharmingen). As a result, the mouse anti-rat FR-β monoclonal antibodies obtained were IgM-type clone 4A67. The reactivity of these antibodies to the antigen was analyzed by flow cytometry.
as §1

As to `C[C@H]1C[C@@H]2[C@H]([C@@H](O)C[C@@]3(C)[C@H]2CC[C@]3(O)C(=O)CO)[C@@]2(C)C=CC(=O)C=C12` [Steroid, methylprednisolone], the “apoptotic death of cartilage cells” value in the series on cartilage cells is “causes the apoptotic death of cartilage cells”.

B1: 4A67: IgM-type mouse anti-rat FR-β monoclonal antibody (antibody, V domains shown)
VH: QIQLVQSGPELKKPGETVKISCKASGYTFTNYGMNWVKQAPGKGLKWMGWINTYTGEPTYTDDFKGRFAFSLETSASTAYLQINNLKNEDMATYFCARKGAMDYWGQGTSVTVSS
VL: QIVLTQSPAIMSASPGEKVTMTCSASSSVSYMHWYQQKSGTSPKRWIYDTSKLASGVPARFSGSGSGTSYSLTISSMEAEDAATYYCQQWSSNPPTFGSGTKLEIK
As to B1, in series [1], the “reactivity with thioglycolate-induced peritoneal macrophages” value is recorded as “reacts”. The “reactivity with rat FR-β-expressing B300-19” value in series [2] is recorded as “reacts”.
